From patent US20240409653A1 (Genmab, published 2024)

Target: Human PD-L1 (human, UniProt Q9NZQ7 19-290)
Test: cell-based or functional assay

Sequence of Human PD-L1 (Q9NZQ7 19-290): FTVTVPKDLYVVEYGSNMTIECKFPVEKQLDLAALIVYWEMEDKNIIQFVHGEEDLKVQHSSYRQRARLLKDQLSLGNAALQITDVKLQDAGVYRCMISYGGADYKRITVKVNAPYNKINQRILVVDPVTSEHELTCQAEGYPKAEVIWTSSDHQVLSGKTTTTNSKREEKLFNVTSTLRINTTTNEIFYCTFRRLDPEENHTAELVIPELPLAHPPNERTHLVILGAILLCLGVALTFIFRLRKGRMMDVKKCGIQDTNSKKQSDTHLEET

- EC50 value [µg/ml], CD8+ T-cell expansion, donor 02: 0.00523 µg/mL
- EC50 value [µg/ml], CD8+ T-cell expansion, donor 28: 0.00754 µg/mL
- EC50 value [µg/ml], CD8+ T-cell expansion, donor 72: 0.00506 µg/mL
- EC50 value [µg/ml], CD8+ T-cell expansion, donor 89: 0.00776 µg/mL
- EC50 value [µg/ml], CD8+ T-cell expansion, mean of donors: 0.0064 µg/mL
B1: GEN1046 (bispecific antibody, human IgG1, kappa, lambda)
heavy 1: EVQLVESGGGLVQPGRSLRLSCTASGFSLNDYWMSWVRQAPGKGLEWVGYIDVGGSLYYAASVKGRFTISRDDSKSIAYLQMNSLKTEDTAVYYCARGGLTYGFDLWGQGTLVTVSSASTKGPSVFPLAPSSKSTSGGTAALGCLVKDYFPEPVTVSWNSGALTSGVHTFPAVLQSSGLYSLSSVVTVPSSSLGTQTYICNVNHKPSNTKVDKRVEPKSCDKTHTCPPCPAPEFEGGPSVFLFPPKPKDTLMISRTPEVTCVVVAVSHEDPEVKFNWYVDGVEVHNAKTKPREEQYNSTYRVVSVLTVLHQDWLNGKEYKCKVSNKALPAPIEKTISKAKGQPREPQVYTLPPSREEMTKNQVSLTCLVKGFYPSDIAVEWESNGQPENNYKTTPPVLDSDGSFFLYSRLTVDKSRWQQGNVFSCSVMHEALHNHYTQKSLSLSPG
light 1: DIVMTQSPSSLSASVGDRVTITCQASEDISSYLAWYQQKPGKAPKRLIYGASDLASGVPSRFSASGSGTDYTFTISSLQPEDIATYYCHYYATISGLGVAFGGGTKVEIKRTVAAPSVFIFPPSDEQLKSGTASVVCLLNNFYPREAKVQWKVDNALQSGNSQESVTEQDSKDSTYSLSSTLTLSKADYEKHKVYACEVTHQGLSSPVTKSFNRGEC
heavy 2: EVQLLEPGGGLVQPGGSLRLSCEASGSTFSTYAMSWVRQAPGKGLEWVSGFSGSGGFTFYADSVRGRFTISRDSSKNTLFLQMSSLRAEDTAVYYCAIPARGYNYGSFQHWGQGTLVTVSSASTKGPSVFPLAPSSKSTSGGTAALGCLVKDYFPEPVTVSWNSGALTSGVHTFPAVLQSSGLYSLSSVVTVPSSSLGTQTYICNVNHKPSNTKVDKRVEPKSCDKTHTCPPCPAPEFEGGPSVFLFPPKPKDTLMISRTPEVTCVVVAVSHEDPEVKFNWYVDGVEVHNAKTKPREEQYNSTYRVVSVLTVLHQDWLNGKEYKCKVSNKALPAPIEKTISKAKGQPREPQVYTLPPSREEMTKNQVSLTCLVKGFYPSDIAVEWESNGQPENNYKTTPPVLDSDGSFLLYSKLTVDKSRWQQGNVFSCSVMHEALHNHYTQKSLSLSPG
light 2: SYVLTQPPSVSVAPGQTARITCGGNNIGSKSVHWYQQKPGQAPVLVVYDDNDRPSGLPERFSGSNSGNTATLTISRVEAGDEADYYCQVWDSSSDHVVFGGGTKLTVLGQPKAAPSVTLFPPSSEELQANKATLVCLISDFYPGAVTVAWKADSSPVKAGVETTTPSKQSNNKYAASSYLSLTPEQWKSHRSYSCQVTHEGSTVEKTVAPTECS
